To fix the notation:
B1: Z006 (MEX105_42) (antibody, V domains shown)
VH: EVQLLESGGGLVQPGGSLRLSCAASGFTFKNYAMAWVRQAPGKGLEWVSLLYNSEESTYYADSVKGRFTISRDNSKNTLFLQMNRLRVEDTAVYFCVRDRSNGWSSINLWGRGTLVTVSS
VL: DIQMTQSPSTLSASVGDRVTMTCRASQTISGWLAWYQQKPGKAPKLLIYQASRLESGIPSRFSGSGSGTEFTLTISSLQPDDVATYYCQQYSTFWTFGLGTKVEIK
B2: Z010 (MEX105_88) (antibody, V domains shown)
VH: EVQLLESGGGLVQPGGSLRLSCAASGFTFSNYAMAWVRQAPGKGLEWVSLIYSGDDSTYYADFVKGRFTISRHNSKNTLSLQMNSLRAEDTAIYYCVKDRGTGWSSIVHWGQGTLVTVSS
VL: B1 VL with M21I, G31N, R53S, I58V, V83F, F94Y, L99Q
B3: Z014 (antibody, V domains shown)
VH: EVQLLESGGDLVQPGGSLRLSCAASGFTFSSYGMSWVRQAPGKGLEWVSSISGFDPSTYYADSVRGRFTIARDNSKNTLYLQMKSLRVEDTAIYYCAKDRLVRGFGEVLDSWGQGTLVTVSS
VL: DIQMTQSPSSLSASVGDRVTITCRASQGISNYLAWYQQKPREVPKLLIYAASTLHSGVPSRFSGSGSGTDFTLTISGLQPEDVATYYCQKYNSVPWTFGQGTKVEIK
B4: Z024 (antibody, V domains shown)
VH: EVQLVQSGAEVRKPGESLRISCKTSGYTFTSHWVAWVRQMPGKGLEWMGIIYPGDSDTRYSPSFQGQISISADKSINTAYLQWSSLKASDTGIYYCARHDGRGYCSPTRCFFSGMDVWGQGTTVTVSS
VL: DIQLTQSPSSLSASVGDRVTITCRASQSISNYLNWYQQKPGKAPNLLIYAASSLQSGVPSRFSGSGSGTDFTLTISSLQPEDYAIYYCQQTDRTPLTFGQGTKVEIK
B5: Z043 (antibody, V domains shown)
VH: QVQLVQSGAEVKKPGASVKVSCKTSGYTFTSYYMNWVRQAPGQGLEWMGIIKPSDGSTNYAQKFQGRVTMTRDTSTSTVYMELRSLRSEDTAVYYCGRDSKGWLQLRGDIDYWGQGTLVTVSS
VL: QSALTQPASVSGSPGQSITISCAGTSSDVGNYNLVSWYQQHPGKAPKLLIYEVSKRPSGVSNRFSGSKSGNTASLTISGLQAEDEADYYCCSYAGSSTYVFGTGTEVTVL
B6: Z041 (antibody, V domains shown)
VH: QVQLVQSGAEVKKPGSSVRLSCKASGGSYSTYAISWVRQAPGQGLEWMGRIIPSLGKTHLAQKFQGRVTFTADESTTTVYMILSSLKSEDTALYYCATPDWQYSSAYSLDHWGQGTLVTVSS
VL: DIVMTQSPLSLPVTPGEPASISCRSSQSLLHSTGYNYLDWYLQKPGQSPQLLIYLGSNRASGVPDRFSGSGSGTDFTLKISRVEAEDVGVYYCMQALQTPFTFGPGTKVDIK
B7: Z031 (BRA112_46) (antibody, V domains shown)
VH: EVQLLESGGGLVQPGGSLRLSCVASGFTFGSYGMAWVRQAPGKGLEWISSISSIDPSTYYADSVKGRFTVSRDNSENTLYLHMSSLKVEDTAVYFCAKDRLNGGFGELFASWGQGTLVTVSS
VL: DIQMTQSPSTLSASVGDSVTITCRASQSISSWLAWYQQKPGKAPKFLIHKASSLESGIPSRFSGSGSGTEFTLTINNLQPDDFATYYCQHYHSYPWTFGQGTKVEIK
B8: Z037 (antibody, V domains shown)
VH: QVQLQESGPGLVKPSETLSLTCSVSGYFISSGHYWGWIRQSPGKGLEWIASIYQSGSKFQTGNTYYNPSLESRVTISMDTSKNQFSLKLSSVTAADTAVYFCARDARSRSWDRTGFFGPWGQGILVTVSS
VL: EIVLTQSPGTLSLSPGERATLSCRASQSLSSSFLAWYQQKPGQSPRLLIYGTSSRDTGIPDRFSGSGSGTDFTLTISRLEPEDSAVYYCQQYGSSWGTFGQGTKLEIK
B9: Z038 (BRA12_2) (antibody, V domains shown)
VH: EVQLLESGGGLVQPGGSLRLSCEASGFTFSNYAMNWVRQAPGKGLEWVSTLGATDNSGDSTYYVESAKGRFTISRDNSKNTLYLQMNSLRVEDTAVYFCAKDRTGNIGAGTGYFDKWGQGTLVTVSS
VL: DIQMTQSPSTLSASVGDRVTITCRASHRISGWLAWYQQKPGKAPKLLIYQASGLESGVPSRFSGSGYGTEFTLTISSLQADDFATYYCQQYNNYPWTFGQGTKVEIK
B10: Z018 (antibody, V domains shown)
VH: QVQLVQSGPGVKKPGASVKVSCKASGYIFSDYYILWVRQAPGQGLEYMGWMNPISGFTHYAQNFQGRVTMTRDTSISTAYMELTRLASDDTAVYYCARGGRINSPLGFDPWGQGTLVTVSS
VL: EIVLTQSPATLSLSPGERATLSCRASQSISTFSLAWYQQKFGQAPRLLIYGASSRATGIPDRFSGSGSGTDFTLTISRLEPEDFAVYYCQQYVSSPLTFGGGTKVEIK
B11: Z042 (antibody, V domains shown)
VH: QVQLQESGPGLVKPSETLSLSCTVSSGSISNYYWNWIRQPPGKGLEWIGYIYYSGSISYNPSLKSRVTISVDTSKNQLSLKLNSVTAADTAVYYCARGPDNRYWGQGTLVTVSS
VL: EIVMTQSPATLSVSPGERVTLSCRASQSVSYNLAWHQQKPGQAPRLLIYGASTRATGIPARFSGSGSGTEFTLTISNMQSEDFAVYYCQQYNNWPPVFTFGPGTKVDIK
B12: Z035 (BRA112_71) (antibody, V domains shown)
VH: EVQLLESGGGLIQPGGSLRLSCAASGFTFSSYAMSWVRQAPGKGLEWVSGISGSGGASDNGASRYYADSVKGRFSISRDNSKNTVYLQMNSLRAEDTAVYYCAKDRLSGGFGELFQKWGQGTLVTVSS
VL: DIQMTQSPSTLAASVGDRVTITCRASQNINSWLAWYQQKPGKAPKFLIYKASTLESGAPSRFSGSGSGTEFTLTISSLQPDDFATYYCQHYYSYPYTFGQGTKVEIK
B13: Z012 (antibody, V domains shown)
VH: QVQLVQSGAEVKKSGASVKVSCKASGYSFTTNYIHWVRQAPGQGPEWMGIINPRGGSTTYAQKFQGRVLMTSDTSTSTVYMELSSLRSEDRAVYYCARGKNHQTTVAVLSWYYGMDVWGQGTTVTVSS
VL: DIQMTQSPSSVSASVGDRVTITCRASQGISSWLAWYQQKPGKAPKLLISAASSLQSGVPSRFSGSGSGTDFTLTISNLQPEDFATYFCQQANSFPYTFGQGTKLEIK
B14: Z039 (antibody, V domains shown)
VH: EVQLLESGGGLVQPGGSLRLSCAASGYIFDNYAMSWVRQAPGKGLEWVSYINGGGYGTDYADSVKGRFTISRDNSKRILYLQMNSLRVGDTAVYYCAKSPYVGGYGLPGDSWGQGTLVTVSS
VL: EIVLTQSPGTLSLSPGERATLSCRASQTIFFNYLAWYQKKPGQAPRLLVHGASTRATGIPDRFSGSGSGTDFTLTINSLDPEDFAVYYCQQYGDSPPTFGGGTKVEIK
B15: Z004 (MEX18_89) (antibody, V domains shown)
VH: EVQLLESGGGLVQPGGSLRLTCATSGFTFRDYAMSWVRQAPGKGLEWVSSYSGIDDSTYYADSVKGRFTISRDNSKSTLSLHMNSLRAEDSALYFCAKDRGPRGVGELFDSWGQGTLVTVSS
VL: DIQMTQSPSTLSASVGDRVTITCRASQSISKWLAWYQQKPGKAPKLLIYTTSTLKSGVPSRFSGSGSGTEFTLTISSLQPDDFATYYCQHFYSVPWTFGQGTKVEIK
B16: Z028 (MEX84_p4-53) (antibody, V domains shown)
VH: EVQLLESGGGLVQPGGSLRLSCAASGFTFSAYAMSWVRQAPGKGLEWVSSINGHSDSTYFADSVKGRFTISRDNSKNTLYLQMNSLRAEDTALYYCAKDRLREGIGELFHSWGQGTLVTVSS
VL: B15 VL with V15I, S30T, K31P, L46F, T50Q, T53I, K55E, F91Y, Y92H, V94Y
B17: Z001 (MEX18_21) (antibody, V domains shown)
VH: EVQLLESGGGLVQPGGSRRLSCATSGFSFDTYAMSWLRQAPGKGLEWVSSFSGLDDSTYYADSVKGRFTISRDNSKNTLYLQMNSLRAEDTAIYYCAKDRGPRGIGELFDFWGQGTLVTVSS
VL: B15 VL with K31R, T50K, G57E, Y92H
B18: Z021 (MEX84_p4-23) (antibody, V domains shown)
VH: QVQLQESGPGLVKPSETLSLTCTVSGGSIDTYYWSWIRQTPGKGLEWIGCFYYSVDNHFNPSLESRVTISVDTSKNQFSLKMTSMTASDTAVYYCARNQPGGRAFDYWGPGTLVTVSS
VL: EIVLTQSPATLSLSPGQRATLSCRASQSVSNYFAWYQQKPGQAPRLLIYDTSKRATGTPARFSGSGSGTDFTLTISSLEPEDFAVYYCQERNNWPLTWTFGLGTKVEIK

Numbering of substitutions follows the chain as printed.

We go through 18 molecules from patent US20200147199A1 (published 2020).

The EC50 is the midpoint of the concentration-response curve. Low readings indicate greater potency, high ones weaker potency.

The test addresses ZIKV E Domain III (ZEDIII), polyhistidine-AviTag, produced in HEK-293-6E cells. Kind of test: ELISA. For orientation: ELISA stands for enzyme-linked immunosorbent assay.
Turning to B1, a half-maximal effect (EC50) was put at 0.0351 µg/mL. For B2 the value was above 0.4 µg/mL; for B3, 0.106 µg/mL. For the molecule B4, the EC50 is above 4 µg/mL.

In turn, B5 registered an EC50 of 0.188 µg/mL. As for B6, the EC50 stood at 0.218 µg/mL. For B7 the value was 0.0341 µg/mL. On to B8, for which the EC50 was above 0.4 µg/mL.

As for B9, the EC50 stood at 0.0581 µg/mL. B10 gave an EC50 of 0.0742 µg/mL.

Regarding B11, the concentration giving a half-maximal response (EC50) stood at 0.0586 µg/mL. Molecule B12 had an EC50 of 0.0284 µg/mL.

In the case of B13, the response was half-maximal at 0.2 µg/mL (EC50). Take B14: the EC50 came to 0.0885 µg/mL. As to B15, the EC50 was 0.0237 µg/mL. Turning to B16, the EC50 amounted to 0.0371 µg/mL. B17: the midpoint of the response, the EC50, lay at 0.0206 µg/mL. Regarding B18, it took 0.0554 µg/mL to reach a half-maximal effect (EC50).
